Values quoted from earlier work in publication PMC5741096.

Experiments:
[1] = target: IL-2Rα/IL-2Rβ/IL-2Rγ (Mus musculus) (UniProt P01590)
[2] = target: IL-2Rβ/IL-2Rγ (Mus musculus) (UniProt P16297)
UniProt P16297, sequence (P16297 27-240, chain 1 of 2): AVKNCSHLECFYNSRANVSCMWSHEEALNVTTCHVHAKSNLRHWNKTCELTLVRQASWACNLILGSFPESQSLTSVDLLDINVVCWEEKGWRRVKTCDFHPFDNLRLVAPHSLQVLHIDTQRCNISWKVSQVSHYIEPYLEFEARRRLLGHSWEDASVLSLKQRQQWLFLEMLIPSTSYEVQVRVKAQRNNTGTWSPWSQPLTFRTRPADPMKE
UniProt P16297, sequence (P34902 23-263, chain 2 of 2, further chain): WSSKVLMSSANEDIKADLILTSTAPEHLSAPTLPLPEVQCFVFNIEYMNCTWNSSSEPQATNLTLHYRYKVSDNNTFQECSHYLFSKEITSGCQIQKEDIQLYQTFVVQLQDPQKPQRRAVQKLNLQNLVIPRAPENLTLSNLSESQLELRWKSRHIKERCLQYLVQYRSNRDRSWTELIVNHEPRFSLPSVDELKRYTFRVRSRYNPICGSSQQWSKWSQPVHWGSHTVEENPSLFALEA

UniProt P01590, sequence (P01590 22-236, chain 1 of 3): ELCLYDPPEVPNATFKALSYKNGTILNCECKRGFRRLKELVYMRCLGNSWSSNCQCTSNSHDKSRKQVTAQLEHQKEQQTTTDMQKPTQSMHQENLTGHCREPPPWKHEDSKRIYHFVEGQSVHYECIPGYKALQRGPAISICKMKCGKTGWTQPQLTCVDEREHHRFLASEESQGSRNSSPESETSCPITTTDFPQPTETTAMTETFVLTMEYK
UniProt P01590, sequence (P16297 27-240, chain 2 of 3, further chain): as the sequence (P16297 27-240, chain 1 of 2) above
UniProt P01590, sequence (P34902 23-263, chain 3 of 3, further chain): as the sequence (P34902 23-263, chain 2 of 2, further chain) above

- Kd [1]: 0.01 nM
- Kd [2]: 1 nM
Substance: IL-2 (from UniProt P04351)
